Where no end group is shown, it is not given here.
Molecular target: T1, PAI-1 (Homo sapiens, UniProt P05121)
T1 construct: purchased American Diagnostica, Inc
Experiment: PAI-1 inhibition studies: protection of tPA from inactivation by PAI-1, residual tPA enzymatic activity by indirect amidolytic assay
Assay type: biochemical
Conditions: 1.5 μg/ml PAI-1, 50 ng/ml tPA; for maintenance of tPA activity in the presence of PAI-1 (FIG. 1): 100 μg/ml peptide, one hour at 37° C.; for effect of peptide concentration on the maintenance of tPA activity in the presence of PAI-1 (FIG. 2): several peptide concentrations (30-120 μg/ml)
Experimental: In each case, peptide and PAI-1 were first mixed, followed by the addition of tPA. Final concentrations were: 100 μg/ml peptide, 1.5 μg/ml PAI-1 and 50 ng/ml tPA in phospate buffered saline containing 0.01% sodium azide and 0.01% Tween 80%. After incubation for one hour at 37° C., samples were examined for remaining tPA enzymatic activity. The error bars represent the range of duplicate measurements of the tPA enzymatic activity in μAU/min/min.
Results are expressed as the percentage of tPA enzymatic activity remaining after incubation with tPA, PAI-1 and peptide relative to that seen with tPA alone.
An indirect amidolytic assay for tPA activity was performed by a conventional method as described by Ranby and Wallen, Prog. Fibrinolytics 5, 233-235 (1981) and Ranby, Biochim. Biophys. Acta 740, 461-469 (1982) but with the following modifications. The assay mixture contained 50 μg/ml human glu-plasminogen, 1 mM plasmin substrate S-2251, 130 μg/ml fibrinogen fragment stimulator, and 0 to 20 ng/ml tPA sample in phosphate-buffered saline containing 0.01% sodium azide and 0.01% Tween 80 (PBSAT) in a final volume of 100 μl. The assay was performed in a 96-well microtitration plate at room temperature. Reaction mixtures were overlaid with 50 μl mineral oil to prevent evaporation. Periodic readings were taken at 405 nm and referenced at 650 nm using a Molecular Devices Vmax plate reader. The first derivative of absorbance with respect to time was calculated and the slope of a plot of dA/dt vs time was proportional to tPA activity. Results were expressed in absorbance units (μ AU/min^2) or as a percentage of control.
The effect of peptides on the inactivation of tPA by PAI-1 was measured by incubating 1.5 μg/ml PAI-1, 30-120 μg/ml peptide and 50 ng/ml tPA in PBSAT. PAI-1 and peptide were first mixed, followed by the addition of tPA. After one hour at 37° C., residual tPA enzymatic activity was measured either immediately or after the samples had been frozen and stored.
tPA was incubated with increasing concentrations of PAI-1 for one hour at 37° C. and the incubate was then assayed for residual tPA enzymatic activity.

T1 sequence (P05121 24-402): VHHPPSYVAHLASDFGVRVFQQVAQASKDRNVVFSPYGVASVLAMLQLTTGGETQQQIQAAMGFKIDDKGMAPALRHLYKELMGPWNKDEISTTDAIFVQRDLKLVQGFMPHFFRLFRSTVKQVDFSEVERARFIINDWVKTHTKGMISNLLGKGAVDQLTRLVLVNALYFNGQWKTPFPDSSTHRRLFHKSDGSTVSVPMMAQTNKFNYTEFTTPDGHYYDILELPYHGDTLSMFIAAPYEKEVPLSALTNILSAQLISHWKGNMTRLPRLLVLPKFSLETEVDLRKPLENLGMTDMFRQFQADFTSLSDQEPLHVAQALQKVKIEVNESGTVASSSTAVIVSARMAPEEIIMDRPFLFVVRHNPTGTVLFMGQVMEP

Row | Substance | maintenance of tPA activity in the presence of PAI-1 (FIG. 1) | effect of peptide concentration on the maintenance of tPA activity in the presence of PAI-1 (FIG. 2)
1 | LGKHNYCRNPDGDAKPWCHVLKNRR-amide (LGKHNYCRNPDGDAKPWCHVLKNRR-NH2; cysteine pairing not given here) [Peptide 166, 25 amino acid synthetic peptide amide fragment of native human tPA] | no effect | no effect
2 | NPDRDSKPWCYVFKAGKYSSEFCST-amide (NPDRDSKPWCYVFKAGKYSSEFCST-NH2; cysteine pairing not given here) [Peptide 158, 25 amino acid synthetic peptide amide fragment of native human tPA] | active but with a lesser effect | steady, progressive increase in activity
3 | VPVKSCSEPRCFNGGTCQQALYFSD-amide (VPVKSCSEPRCFNGGTCQQALYFSD-NH2; cysteine pairing not given here) [Peptide 148, 25 amino acid synthetic peptide amide fragment of native human tPA] | especially effective at maintaining tPA activity | rose dramatically and plateaued

Reference: patent publication US5039791A, “Peptide fragments of tissue plasminogen activator” (Monsanto Company, priority 1989, dated 1991)
